What is called EC50 is the concentration giving half of the maximal effect. A lower EC50 goes with higher potency in that assay.

For one experiment, the target named is hPBMC. As to the kind of experiment: flow cytometry, percent of stained hPBMC against the concentration of Alexa647-labeled hDsg3-hFc.
Experiment [1] addresses AK23 antibody (anti-mouse Dsg3, from AK23 hybridoma). As to the kind of experiment: cell-based or functional assay.
The target of experiment [2] is F779 patient-derived anti-Dsg3 antibody on Nalm-6 cells. The experiment in a line: cell-based or functional assay.
Experiment [3] concerns the target PVB28 patient-derived anti-Dsg3 antibody on Nalm-6 cells. As to the kind of experiment: cell-based or functional assay.
The target of experiment [4] is F779 patient-derived anti-Dsg3 antibody on Nalm-6 cells. As to the kind of experiment: flow cytometry on F779 cells, titration of Alexa647-labeled protein. (In general: A flow cytometer gives signals particle by particle.)
Experiment [5] deals with Fcγ receptor of mouse macrophages (RAW264.7 cells) (mouse). The experiment in a line: flow cytometry on Raw macrophage cells, titration of labeled protein.
For experiment [6] the target is unchanged. The experiment in a line: flow cytometry dot plot of RAW264.7 macrophage cells, 10 nM mDsg3-IgG2a-Alexa647; the same quadrant at 0 nM prints 1.28.
Experiment [7] has as its target F779 patient-derived anti-Dsg3 antibody on Nalm-6 cells. As to the kind of experiment: flow cytometry, F779 cells incubated with varying concentrations of mDsg3-mFc (IgG2a), percent of stained F779 cells [top].

In turn, hDsg3(EC13)-hFc (Fc fusion) returned an EC50 with hPBMC of 1.7 nM.

B1: mDsg3(EC13)-mFc (Fc fusion)
chain: EWVKFAKPCREREDNSRRNPIAKITSDFQKNQKITYRISGVGIDQPPFGIFVVDPNNGDINITAIVDREETPSFLITCRALNALGQDVERPLILTVKILDVNDNPPIFSQTIFKGEIEENSASNSLVMILNATDADEPNHMNSKIAFKIVSQEPAGMSMFLISRNTGEVRTLTSSLDREQISSYHLVVSGADNDGTGLSTQCECSIKIKDVNDNFPVLRESQYSARIEENTLNAELLRFQVTDWDEEYTDNWLAVYFFTSGNEGNWFEIETDPRTNEGILKVVKALDYEQVQSMQFSIAVRNKAEFHQSVISQYRVQSTPVTIQVIDVREGISGGGGSGGSEPRGPTIKPCPPCKCPAPNLLGGPSVFIFPPKIKDVLMISLSPIVTCVVVDVSEDDPDVQISWFVNNVEVHTAQTQTHREDYNSTLRVVSALPIQHQDWMSGKEFKCKVNNKDLPAPIERTISKPKGSVRAPQVYVLPPPEEEMTKKQVTLTCMVTDFMPEDIYVEWTNNGKTELNYKNTEPVLDSDGSYFMYSKLRVEKKNWVERNSYSCSVVHEGLHNHHTTKSFSRTPGKGGGGSGGGGSDYKDDDDKLPETGGHHHHHH
modifications: Alexa Fluor 647 installed site-specifically at the C-terminus by sortase (Gly3-Alexa647 on the LPETG motif) for the flow cytometry stainings
Molecule B1 displayed a killing of AK23 target cells co-cultured with RAW264.7 macrophages, 10 nM construct, 24 hours in experiment [1] of 60%. Also, in experiment [2], the killing of F779 target cells co-cultured with RAW264.7 macrophages, 10 nM construct, 24 hours worked out at 65%; the killing of F779 target cells co-cultured with RAW264.7 macrophages, 10 nM construct, 48 hours was 94%; the killing of F779 target cells with RAW264.7 macrophages (Effector:Target 10:1), 1 nM construct, 24 hours is 60%; the killing of F779 target cells with RAW264.7 macrophages (Effector:Target 10:1), 1 nM construct, 48 hours was 80%. Besides, the killing of targeted cells with RAW264.7 macrophages at 10 and 100 nM construct in experiment [2] turned out to be 90%. The molecule also gave a killing of targeted cells with RAW264.7 macrophages at 10 and 100 nM construct in experiment [3] of 90%. The EC50 in experiment [4] amounted to 2.3 nM. Moreover, the EC50 in experiment [5] came to 2.3 nM. The molecule also had a number in the Alexa647-positive upper right quadrant at 10 nM (percent of cells) in experiment [6] of 98.6%. In experiment [7], the EC50 is 2.6 nM.
